Measured values as given in IntAct's records for PubMed 21577200.

Target: spop_human SPOP (UniProt O43791)
Sequence (O43791 whole entry): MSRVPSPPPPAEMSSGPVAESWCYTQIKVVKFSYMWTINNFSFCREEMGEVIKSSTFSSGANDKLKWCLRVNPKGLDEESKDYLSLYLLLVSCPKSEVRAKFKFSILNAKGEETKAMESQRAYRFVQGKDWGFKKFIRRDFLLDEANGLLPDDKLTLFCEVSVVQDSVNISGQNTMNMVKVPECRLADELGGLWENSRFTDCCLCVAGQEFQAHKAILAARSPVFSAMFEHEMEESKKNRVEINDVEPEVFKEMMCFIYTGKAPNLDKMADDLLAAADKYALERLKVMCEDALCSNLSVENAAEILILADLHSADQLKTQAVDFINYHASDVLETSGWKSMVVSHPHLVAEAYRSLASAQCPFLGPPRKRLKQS

Row | effect of a mutation on the interaction | Substance
1 | disrupting interaction | Nuclear receptor coactivator 3 (Homo sapiens), Q9Y6Q9 S102A
2 | disrupting interaction | Nuclear receptor coactivator 3 (Homo sapiens), Q9Y6Q9 S101A;S102A
